The target of data set [1] is T1, SsnA (NMV_0044) (Neisseria meningitidis 8013 2C4.3, UniProt Q9K1N6 Q9K1N6:1-94).
T1 sequence: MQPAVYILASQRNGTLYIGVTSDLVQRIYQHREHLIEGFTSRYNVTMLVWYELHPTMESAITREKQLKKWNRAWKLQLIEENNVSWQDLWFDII
Briefly: EMSA. The note with it: no Mg, 50 mM NaCl, 10 mM Tris pH 7.9, 37 C; 0.5 uM protein, 0.8 uM DNA.

The target of data set [2] is T1, SsnA (NMV_0044). Briefly: cleavage_in_vitro. The conditions noted are these: 10 mM MgCl2, 37 C optimum; abolished by EDTA.
Data set [3] addresses T1, SsnA (NMV_0044). Briefly: EMSA; no Mg, 37 C; also not cleaved. The note with it: tags: N-terminal 6xHis; label: 5'-carboxyfluorescein. The method, then:
Gel-shift (top, EMSA) and endonuclease (bottom) assays of 0.5 μM SsnA with 0.8 µM of DNA. Magnesium was omitted from the EMSA reaction mix to allow DNA binding by SsnA without nuclease activity. ssDNArev is the reverse complement of ssDNA. dsDNA is the double-stranded annealed product from ssDNA with ssDNArev. The arrow represents the recognition pattern (NTS repeat) of SsnA. Unless otherwise indicated (last well), assayed proteins were his-tagged.
Electrophoretic mobility shift assay (EMSA). Gel shift assays, or EMSA, were performed by diluting the proteins in Diluent A (NEB) to the indicated working concentrations. 5′carboxyfluorescin-tagged oligos corresponding to genomic regions of N. meningitidis MC58 were synthesized from Sigma. When needed, complementary oligonucleotides were annealed by mixing equimolar amounts in annealing buffer (10 mM Tris-HCl PH8, 50 mM NaCl, 1 mM EDTA), incubating them 5 minutes at 95° C. and letting them slowly cool down. For the gel-shift assays, proteins were mixed with the fluorescent oligonucleotides in a reaction buffer containing 50 mM NaCl, 10 mM Tris-HCl, 100 μg/ml BSA, pH7.9. The mixes were incubated at 37° C. for 30 minutes before adding native loading dye. Samples were resolved on native 10% TBE-acrylamide gels and imaged with a Typhoon FLA9500 scanner. […]

Data set [4] addresses T1, SsnA (NMV_0044). Briefly: EMSA; unable to interact with RNA. The conditions noted are these: tags: N-terminal 6xHis. How it is done: (§1) Electrophoretic mobility shift assay (EMSA). Gel shift assays, or EMSA, were performed by diluting the proteins in Diluent A (NEB) to the indicated working concentrations. 5′carboxyfluorescin-tagged oligos corresponding to genomic regions of N. meningitidis MC58 were synthesized from Sigma. When needed, complementary oligonucleotides were annealed by mixing equimolar amounts in annealing buffer (10 mM Tris-HCl PH8, 50 mM NaCl, 1 mM EDTA), incubating them 5 minutes at 95° C. and letting them slowly cool down. For the gel-shift assays, proteins were mixed with the fluorescent oligonucleotides in a reaction buffer containing 50 mM NaCl, 10 mM Tris-HCl, 100 μg/ml BSA, pH7.9. The mixes were incubated at 37° C. for 30 minutes before adding native loading dye. Samples were resolved on native 10% TBE-acrylamide gels and imaged with a Typhoon FLA9500 scanner. For branched DNA binding assays, a similar approach was used but the gel was stained with GelStain (Biotium) and imaged on a GelDoc (BioRad) since the oligonucleotides were not fluorescently labelled.

Data set [5] deals with T1, SsnA (NMV_0044). Briefly: EMSA; binding preserved, cleavage reduced to varying extents. The conditions noted are these: tags: N-terminal 6xHis; label: 5'-carboxyfluorescein; hairpin. The method, then: as §1

The values below come from patent publication US20250043259, “ENDONUCLEASES THAT SELECTIVELY CLEAVE SINGLE-STRANDED NUCLEIC ACIDS AND USES THEREOF” (INSTITUT NATIONAL DE LA RECHERCHE SCIENTIFIQUE, published 2025).

Molecule ssDNA (100 nt, NTS) came in with a binding with SsnA (NMV_0044) [1] of 100 % bound. The molecule also gave an activity in the data set with SsnA (NMV_0044) [2] of 100 % cleaved.

B1: ssDNArev (ssDNA)
DNA: CCAGGTCTGTCGGTGCGGAAACTTATCGGATAAAACGGTTTCTTTAGATTTTACGTTCTAGATTCCCGCTTTCGCGGGAATGACGGAATATTTTTGAATT
modifications: [none]
As for B1, in the data set with SsnA (NMV_0044) [3], the binding result is “no binding”.

B2: dsDNA (100 bp, NTS) (dsDNA)
DNA 1: AATTCAAAAATATTCCGTCATTCCCGCGAAAGCGGGAATCTAGAACGTAAAATCTAAAGAAACCGTTTTATCCGATAAGTTTCCGCACCGACAGACCTGG
DNA 2: CCAGGTCTGTCGGTGCGGAAACTTATCGGATAAAACGGTTTCTTTAGATTTTACGTTCTAGATTCCCGCTTTCGCGGGAATGACGGAATATTTTTGAATT
For the molecule B2, in the data set with SsnA (NMV_0044) [3], the binding result is “no binding”.

For the molecule AAAAAUAUUCCGUCAUUCCCGCGAAAGCGGGAAUCUA (ssRNA) [RNA37], in the data set with SsnA (NMV_0044) [4], the binding result is “no binding”.

B3: NTS#5 (ssDNA)
DNA: GTCATTCCCACGAACCTACATTCCGTCATTCCCACGAAAGTGGGAATCCAGTGCGTTGAGTTTCAGTCATTTCCAATAAATTGCCTTAGTATTGAATGTC
B3: the binding result in the data set with SsnA (NMV_0044) [5] is listed as “binds”.

B4: NTS#2 (ssDNA)
DNA: GTCATTCCCACGAACCTACATTCCGTCATTCCCACGAAAGTGGGAATCTAGAATCTCTAAAGCTTCAGCTAACCTTTGAATATTGCTGTTGTTCTAAGGT
Take B4: the binding result with SsnA (NMV_0044) [5] is “binds”.

B5: NTS#4 (ssDNA)
DNA: TAAATGACCCCAACTTAAAATCCCGTCATTCCCGCGCAGGCGGGAATCTAGGTCTGTCGGTGCGGAAACTTATCGGGTAAAACGGTTTCTTGAGATTTTG
B5: the binding result with SsnA (NMV_0044) [5] is listed as “binds”.

B6: NTS#3 (ssDNA)
DNA: ATCCCGTCATTCCCGCCACTTTCCGTCATTCCCGCGAAAGCGGGAATCTAGAATCTCGGACTTTCAGATAATCTTTGAATATTGCTGTTGTTCTAAGGTC
For B6, the binding result in the data set with SsnA (NMV_0044) [5] was “binds”.

B7: NTS#1 (ssDNA)
DNA: GAGGTTTCGGGCAACTTCTAAACCGTCATTCCCGCGCAGGCGGGAATCCAGACCATTGGACAGCAGCAATATTCAAAGATTATCTGAAAGTCCGGGATTC
For B7, in the data set with SsnA (NMV_0044) [5], the binding result is reported as “binds”.
